{"source": "patent US20040203101A1", "target": "rat nerve growth factor gamma (rat)", "assay": "kinetic constants for the interaction of BAIT with proteinases; method not described"}
{"substance": "human BAIT (Brain-Associated Inhibitor of Tissue-Type Plasminogen Activator), mature protein expressed in baculovirus/Sf9 cells and purified (from UniProt Q99574 19-410)", "values": [{"measurement": "K", "value": 1.3, "unit": "µM"}, {"measurement": "k", "value": 0.0086, "unit": "s⁻¹"}, {"measurement": "ki", "value": 6500, "unit": "M⁻¹ s⁻¹"}]}
